The source of these data is publication PMC5864733.

In this data set the target is CsrA (Escherichia coli EPEC O127:H6 E2348/69, UniProt B7UHB4 1-61). As to the kind of experiment: EMSA; no CesT. The note with it: protein: recombinant; tags: GST tag, cleaved by PreScission (pGEX-6P-1); chain copies: 2; label: none (ethidium bromide stain); single strand, heated to 80 C and slowly cooled. (In general: In EMSA bound probe runs differently from free probe, usually more slowly.)
CsrA, sequence (B7UHB4 whole entry): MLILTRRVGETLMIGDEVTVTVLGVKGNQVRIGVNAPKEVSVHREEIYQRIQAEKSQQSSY

With CACUAAUAAUAUCAAUGGAUUGAUAUUAUUAAUG (structured_RNA) [nleA 5'UTR RNA], the binding result is given as “binds”.
